Experimental data taken from patent US9402913B2, “Cyclosporine A steroid conjugates” (Allergan, Inc., priority 2013, dated 2016).

Tested on: human recombinant carboxylesterases
Assay: In vitro metabolic stability in human recombinant carboxylesterases (rate of metabolite formation, LC-MS/MS)
Format: in vitro ADME
Details: 1 μM test compound, 0.1 mg/mL human recombinant carboxylesterase mixture, pH=6.0, 37° C., triplicate
Method: In Vitro Metabolic Stability in Human Recombinant Carboxylesterases
Human recombinant carboxylesterases were purchased from a commercial vendor (BD Gentest™, Bedford, Mass.). All metabolic stability experiments were performed in triplicate in 96-well plate format. The final incubation mixture contained 1 μM test compound and 0.1 mg/mL human recombinant carboxylesterase mixture in a final volume of 0.5 mL 0.1M potassium phosphate buffer (pH=6.0). […] Following a pre-incubation at 37° C., test article was added to initiate the reaction. At designated time points (typically 120 minutes to capture the linear range of metabolite formation), 0.05 mL aliquots were removed from the incubation mixtures using a clean pipet tip and immediately placed in organic solvent to stop any esterase activity.
The samples were analyzed by liquid chromatography with mass spectrometry (LC-MS/MS) detection to determine the metabolite concentrations resulting from the metabolism of the hybrid compounds. Internal standards were used to compensate for variability from sample processing, chromatographic elution, mass spectrometer response and ion suppression by matrix components.

Structure (SMILES)	Rate of formation Metabolite 2 (Cyclosporine A) [nM/min/mg]	Rate of formation Metabolite 1 (Prednisolone) [nM/min/mg]	Rate of formation Metabolite 1 (Dexamethasone) [nM/min/mg]
C/C=C/C[C@@H](C)C(OC(=O)OCOC(=O)CCC(=O)OCCOCCOCCOC(=O)CCC(=O)OCC(=O)[C@@]1(O)CCC2C3CCC4=CC(=O)C=C[C@]4(C)C3[C@@H](O)C[C@@]21C)C1C(=O)NC(CC)C(=O)N(C)CC(=O)N(C)[C@@H](CC(C)C)C(=O)NC(C(C)C)C(=O)N(C)C(CC(C)C)C(=O)NC(C)C(=O)NC(C)C(=O)N(C)C(CC(C)C)C(=O)N(C)C(CC(C)C)C(=O)N(C)C(C(C)C)C(=O)N1C (relative stereo) [Compound 5]	35.6 ± 0.63	84.4 ± 7.52	–
C/C=C/C[C@@H](C)[C@@H](OC(=O)OCOC(=O)CCC(=O)OCCOCCOCCOCCOC(=O)CCC(=O)OCC(=O)[C@@]1(O)CCC2C3CCC4=CC(=O)C=C[C@]4(C)C3[C@@H](O)C[C@@]21C)C1C(=O)NC(CC)C(=O)N(C)CC(=O)N(C)[C@@H](CC(C)C)C(=O)NC(C(C)C)C(=O)N(C)C(CC(C)C)C(=O)NC(C)C(=O)NC(C)C(=O)N(C)C(CC(C)C)C(=O)N(C)C(CC(C)C)C(=O)N(C)C(C(C)C)C(=O)N1C (relative stereo) [Compound 6]	34.4 ± 3.85	–	–
C/C=C/C[C@@H](C)C(OC(=O)CN(C)C(=O)CNC(=O)OCOC(=O)CCC(=O)OCC(=O)[C@@]1(O)CCC2C3CCC4=CC(=O)C=C[C@]4(C)C3[C@@H](O)C[C@@]21C)C1C(=O)NC(CC)C(=O)N(C)CC(=O)N(C)[C@@H](CC(C)C)C(=O)NC(C(C)C)C(=O)N(C)C(CC(C)C)C(=O)NC(C)C(=O)N[C@@H](C)C(=O)N(C)[C@@H](CC(C)C)C(=O)N(C)C(CC(C)C)C(=O)N(C)C(C(C)C)C(=O)N1C (relative stereo) [Compound 7]	1.31 ± 0.18	4.26 ± 1.31	–
C/C=C/C[C@@H](C)[C@@H](OC(=O)OCOC(=O)CCC(=O)OCCOCCOCCOCCOC(=O)CCC(=O)OCC(=O)[C@@]1(O)[C@H](C)CC2C3CCC4=CC(=O)C=C[C@]4(C)[C@@]3(F)[C@@H](O)C[C@@]21C)C1C(=O)NC(CC)C(=O)N(C)CC(=O)N(C)[C@@H](CC(C)C)C(=O)NC(C(C)C)C(=O)N(C)C(CC(C)C)C(=O)NC(C)C(=O)NC(C)C(=O)N(C)C(CC(C)C)C(=O)N(C)C(CC(C)C)C(=O)N(C)C(C(C)C)C(=O)N1C (relative stereo) [Compound 20]	13.9 ± 1.11	–	12.0 ± 0.88
C/C=C/C[C@@H](C)[C@@H](OC(=O)OCOC(=O)CCC(=O)OCCOCCOC(=O)CCC(=O)OCC(=O)[C@@]1(O)CCC2C3CCC4=CC(=O)C=C[C@]4(C)C3[C@@H](O)C[C@@]21C)C1C(=O)NC(CC)C(=O)N(C)CC(=O)N(C)[C@@H](CC(C)C)C(=O)NC(C(C)C)C(=O)N(C)C(CC(C)C)C(=O)NC(C)C(=O)NC(C)C(=O)N(C)C(CC(C)C)C(=O)N(C)C(CC(C)C)C(=O)N(C)C(C(C)C)C(=O)N1C (relative stereo) [Compound 21]	21.6 ± 0.03	–	–
C/C=C/C[C@@H](C)[C@@H](OC(=O)OCOC(=O)CCC(=O)OCCOCCOCCOCCOCCOC(=O)CCC(=O)OCC(=O)[C@@]1(O)CCC2C3CCC4=CC(=O)C=C[C@]4(C)C3[C@@H](O)C[C@@]21C)C1C(=O)NC(CC)C(=O)N(C)CC(=O)N(C)[C@@H](CC(C)C)C(=O)NC(C(C)C)C(=O)N(C)C(CC(C)C)C(=O)NC(C)C(=O)NC(C)C(=O)N(C)C(CC(C)C)C(=O)N(C)C(CC(C)C)C(=O)N(C)C(C(C)C)C(=O)N1C (relative stereo) [Compound 22]	46.5 ± 3.16	38.4 ± 3.32	–
C/C=C/C[C@@H](C)[C@@H](OC(=O)OCOC(=O)CCC(=O)OCCOCCOCCOC(=O)CCC(=O)OCC(=O)[C@@]1(O)[C@H](C)CC2C3CCC4=CC(=O)C=C[C@]4(C)[C@@]3(F)[C@@H](O)C[C@@]21C)C1C(=O)NC(CC)C(=O)N(C)CC(=O)N(C)[C@@H](CC(C)C)C(=O)NC(C(C)C)C(=O)N(C)C(CC(C)C)C(=O)NC(C)C(=O)NC(C)C(=O)N(C)C(CC(C)C)C(=O)N(C)C(CC(C)C)C(=O)N(C)C(C(C)C)C(=O)N1C (relative stereo) [Compound 32]	13.4 ± 1.31	–	20.4 ± 3.18
